We go through three molecules from patent US20090137002A1 (published 2009).

In one assay the target is T1, recombinant mouse EphB6 (mouse, UniProt O08644 33-591, limits assumed).
T1 construct: also called mEphB6
T1 sequence (looked up): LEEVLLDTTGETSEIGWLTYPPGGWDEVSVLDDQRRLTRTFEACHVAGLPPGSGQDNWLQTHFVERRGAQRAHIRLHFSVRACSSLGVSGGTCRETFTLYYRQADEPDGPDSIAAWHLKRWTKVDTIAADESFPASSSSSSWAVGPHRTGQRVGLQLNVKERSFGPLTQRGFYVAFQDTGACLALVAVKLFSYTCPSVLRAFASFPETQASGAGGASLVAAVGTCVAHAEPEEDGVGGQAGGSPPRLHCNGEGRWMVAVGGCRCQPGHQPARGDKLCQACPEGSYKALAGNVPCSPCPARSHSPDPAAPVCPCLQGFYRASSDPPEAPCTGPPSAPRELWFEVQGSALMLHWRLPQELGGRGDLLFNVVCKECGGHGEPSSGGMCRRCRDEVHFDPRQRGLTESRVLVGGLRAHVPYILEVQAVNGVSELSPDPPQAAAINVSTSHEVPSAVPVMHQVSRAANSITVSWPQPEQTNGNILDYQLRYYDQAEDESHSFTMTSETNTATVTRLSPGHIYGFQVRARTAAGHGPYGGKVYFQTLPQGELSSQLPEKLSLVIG
The experiment in a line: ELISA on coated receptor. On the procedure:
(§1) A 96-well plate was coated with recombinant mEphB1, -2, -3, -4, -6, mEphA4 and hEphB4 in PBS o/n at 4° C. (5 μg/mL; 100 μL/well). The next day, the antigen was discarded and the plate blocked with 3% BSA/PBS (300 μl/well) for 2 hrs at room temperature (RT). Blocking solution was discarded and anti-EphB4 Fabs were added to the wells at a concentration of 20 μg/mL in 1% BSA/PBS and incubated for 1 hr at RT. Fabs were discarded and the plate was washed 3× with PBS. Anti-human F(ab′)₂—HRP was added at a concentration recommended by the manufacturer in 1% BSA/PBS and incubated for 1 hr at RT. The plate was washed 3× with PBS and 100 μL/well chemifluorescent substrate was added. After development, fluorescence was measured in a fluorescence reader.
(In an ELISA, binding on a coated surface is turned into a signal by an enzyme label.)

In assay [1] the target is T2, recombinant mouse EphB3-Fc fusion protein (mouse, UniProt P54754 30-537, limits assumed).
T2 construct: also called mEphB3; not shown: Fc part, not described
T2 sequence (looked up): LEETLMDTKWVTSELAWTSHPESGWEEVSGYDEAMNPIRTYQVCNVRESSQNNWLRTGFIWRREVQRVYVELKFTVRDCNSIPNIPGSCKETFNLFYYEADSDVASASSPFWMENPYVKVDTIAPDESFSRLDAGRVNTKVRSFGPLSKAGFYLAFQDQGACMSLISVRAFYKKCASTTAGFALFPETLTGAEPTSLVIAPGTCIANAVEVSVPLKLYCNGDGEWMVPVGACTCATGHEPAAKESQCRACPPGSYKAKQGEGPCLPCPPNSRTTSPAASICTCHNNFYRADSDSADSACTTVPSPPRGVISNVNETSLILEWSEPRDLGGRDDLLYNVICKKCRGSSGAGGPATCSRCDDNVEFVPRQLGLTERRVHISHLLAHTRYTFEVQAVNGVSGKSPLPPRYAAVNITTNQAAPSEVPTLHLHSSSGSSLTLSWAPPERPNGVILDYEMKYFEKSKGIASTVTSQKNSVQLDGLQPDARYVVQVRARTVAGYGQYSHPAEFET
The experiment in a line: ELISA on coated receptor. The procedure:
as §1

In assay [2] the target is T3, recombinant murine EphB4-Fc fusion protein (mouse, UniProt P54761 16-539).
T3 construct: extracellular domain; also called mEphB4; mu EphB4; not shown: Fc part, not described
T3 sequence (looked up): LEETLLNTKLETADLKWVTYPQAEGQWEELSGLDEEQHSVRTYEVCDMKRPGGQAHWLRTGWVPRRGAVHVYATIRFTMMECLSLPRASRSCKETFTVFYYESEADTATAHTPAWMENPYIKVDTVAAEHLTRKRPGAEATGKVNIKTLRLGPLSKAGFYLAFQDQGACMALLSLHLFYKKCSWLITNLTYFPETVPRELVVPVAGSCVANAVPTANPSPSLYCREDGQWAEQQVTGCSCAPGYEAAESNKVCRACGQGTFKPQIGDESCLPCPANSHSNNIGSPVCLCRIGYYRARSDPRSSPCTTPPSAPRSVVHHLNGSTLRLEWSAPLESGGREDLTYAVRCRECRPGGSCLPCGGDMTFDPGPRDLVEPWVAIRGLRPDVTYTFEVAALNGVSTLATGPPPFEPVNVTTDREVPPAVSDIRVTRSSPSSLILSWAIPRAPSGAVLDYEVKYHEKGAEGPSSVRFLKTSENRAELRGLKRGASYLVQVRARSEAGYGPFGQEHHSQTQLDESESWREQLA
The experiment in a line: Biacore, EphB4-Fc on chip. On the procedure:
(§2) The affinity of the antibody fragments was determined using BIACORE™ analysis and cell ELISA. The Biacore chip was coated with recombinant human or murine EphB4-Fc fusion protein.
On the technique in general: SPR reads the build-up and loss of mass on a sensor chip optically.

The target of assay [3] is T4, recombinant human EphB4-Fc fusion protein (human, UniProt P54760 16-539).
T4 construct: extracellular domain; also called hEphB4; hu EphB4-Fc
T4 sequence (looked up): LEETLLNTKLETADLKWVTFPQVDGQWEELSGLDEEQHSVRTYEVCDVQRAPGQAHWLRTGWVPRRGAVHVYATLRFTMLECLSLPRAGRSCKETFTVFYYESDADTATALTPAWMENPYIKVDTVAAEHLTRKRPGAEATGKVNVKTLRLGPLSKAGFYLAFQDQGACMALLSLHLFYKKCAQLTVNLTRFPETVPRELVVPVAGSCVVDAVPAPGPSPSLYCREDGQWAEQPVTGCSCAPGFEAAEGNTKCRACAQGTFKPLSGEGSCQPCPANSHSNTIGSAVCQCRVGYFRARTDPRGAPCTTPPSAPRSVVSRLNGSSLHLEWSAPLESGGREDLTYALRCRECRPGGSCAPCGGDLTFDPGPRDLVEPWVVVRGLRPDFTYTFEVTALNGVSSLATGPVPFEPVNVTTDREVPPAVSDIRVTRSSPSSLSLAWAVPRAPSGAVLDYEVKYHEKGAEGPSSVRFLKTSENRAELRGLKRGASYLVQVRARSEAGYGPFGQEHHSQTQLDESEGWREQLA
Kind of assay: Biacore, EphB4-Fc on chip. On the procedure: as §2

The target in assay [4] is T4, recombinant human EphB4-Fc fusion …. The experiment in a line: ELISA.

B1: MOR03640 Fab (Fab, V domains shown)
VH: QVQLVESGGGLVQPGGSLRLSCAASGFTFNNSWMSWVRQAPGKGLEWVSNITSSSSMTHYADSVKGRFTISRDNSKNTLYLQMNSLRAEDTAVYYCARKGMSFYNNKYAKSMFDLWGQGTLVTVSS
VL: DIELTQPPSVSVAPGQTARISCSGDNLGKKYVHWYQQKPGQAPVLVIYYDSKRPSGIPERFSGSNSGNTATLTISGTQAEDEADYYCSAWTTTMMHIVFGGGTKLTVLG
notes: Monomeric HuCAL Fab, purified, MH-tagged
Usually Kd stands for a measure of binding affinity in units of concentration. Consider B1, for which the binding result (with recombinant mouse EphB6; in assay [1]) was “no binding (tested: 20 µg/mL)” throughout. The values for the Kd in assay [2] and in assay [3] were 0.004 µM and 0.0018 µM, respectively. For the same molecule, the “ELISA signal above background” value in assay [4] came to 10 fold.

B2: MOR03641 Fab (Fab, V domains shown)
VH: QVQLVQSGAEVKKPGSSVKVSCKASGGTFSTYAISWVRQAPGQGLEWMGRIIPIFGTANYAQKFQGRVTITADESTSTAYMELSSLRSEDTAVYYCARSSYTILTTYYNYNAMDNWGQGTLVTVSS
VL: DIQMTQSPSSLSASVGDRVTITCRASQNINNFLNWYQQKPGKAPKLLIYGSSILQSGVPSRFSGSGSGTDFTLTISSLQPEDFAVYYCHQVSDTSDTFGQGTKVEIKR
notes: Monomeric HuCAL Fab (VH1A, kappa1), purified, MH-tagged; also called 3541 [sic]
Consider B2, for which the binding result (with recombinant mouse EphB6; in assay [1]) was “no binding (tested: 20 µg/mL)” in each case. Also, the Kd in assay [2] was 0.151 µM; in assay [3], 0.035 µM. The “ELISA signal above background” value in assay [4] amounted to 10 fold.

B3: MOR03639 Fab (Fab, V domains shown)
VH: QVQLVESGGGLVQPGGSLRLSCAASGFTFSNYYLHWVRQAPGKGLEWVSGISYSGSSTYYADSVKGRFTISRDNSKNTLYLQMNSLRAEDTAVYYCARFYQRRQIPHGYDVWGQGTLVTVSS
VL: DIELTQPPSVSVAPGQTARISCSGDNIGDYYVHWYQQKPGQAPVLVIYRDSNRPSGIPERFSGSNSGNTATLTISGTQAEDEADYYCGSYDMPFGGTVFGGGTKLTVLG
notes: Monomeric HuCAL Fab (VH3, lambda3), purified, MH-tagged
For B3, the binding result (in the assay with recombinant mouse EphB6; in assay [1]) was “no binding (tested: 20 µg/mL)” in each case. For the same molecule, the Kd in assay [2] turned out to be 0.043 µM; in assay [3], 0.013 µM. For the same molecule, in assay [4], the “ELISA signal above background” value worked out at 10 fold.
